From patent publication US20030165887A1 (BURNHAM INSTITUTE, published 2003)

Tests used:
Assay in all cases: co-immunoprecipitation, transfected HEK293T cells, SDS-PAGE/immunoblot
pro-caspase-8 = pro-caspase-8 (UniProt Q14790 1-479, limits assumed)
Method: (§1) The TUCAN polypeptides were expressed by transient transfection in HEK293T cells together with epitope-tagged pro-caspase-9 or other proteins. […] Cell lysates were prepared from transfected cells and immunoprecipitations were performed using anti-Flag or anti-Myc antibodies, followed by SDS-PAGE/immunoblot analysis.

CED4 = target: T1, CED4 (UniProt P30429 1-549, limits assumed)
T1 sequence (looked up): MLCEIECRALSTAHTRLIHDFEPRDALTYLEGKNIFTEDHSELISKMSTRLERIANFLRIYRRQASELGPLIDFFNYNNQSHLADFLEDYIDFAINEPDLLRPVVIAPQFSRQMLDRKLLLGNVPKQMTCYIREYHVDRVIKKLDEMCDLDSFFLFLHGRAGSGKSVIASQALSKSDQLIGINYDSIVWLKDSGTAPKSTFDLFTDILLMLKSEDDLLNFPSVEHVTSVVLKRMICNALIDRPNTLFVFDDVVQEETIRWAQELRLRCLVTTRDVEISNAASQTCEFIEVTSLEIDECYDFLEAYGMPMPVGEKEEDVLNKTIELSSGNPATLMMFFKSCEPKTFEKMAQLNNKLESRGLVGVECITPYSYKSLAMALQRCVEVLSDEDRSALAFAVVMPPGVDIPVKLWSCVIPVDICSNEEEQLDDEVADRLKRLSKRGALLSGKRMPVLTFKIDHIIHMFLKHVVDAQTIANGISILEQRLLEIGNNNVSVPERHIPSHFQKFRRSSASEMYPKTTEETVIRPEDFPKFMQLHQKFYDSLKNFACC
Method: as §1

cIAP2 = cIAP2 (Homo sapiens (Human), UniProt Q13489 1-604)
Method: as §1

pro-caspase-10 = target: T2, pro-caspase-10 (UniProt Q92851 1-521, limits assumed)
T2 sequence (looked up): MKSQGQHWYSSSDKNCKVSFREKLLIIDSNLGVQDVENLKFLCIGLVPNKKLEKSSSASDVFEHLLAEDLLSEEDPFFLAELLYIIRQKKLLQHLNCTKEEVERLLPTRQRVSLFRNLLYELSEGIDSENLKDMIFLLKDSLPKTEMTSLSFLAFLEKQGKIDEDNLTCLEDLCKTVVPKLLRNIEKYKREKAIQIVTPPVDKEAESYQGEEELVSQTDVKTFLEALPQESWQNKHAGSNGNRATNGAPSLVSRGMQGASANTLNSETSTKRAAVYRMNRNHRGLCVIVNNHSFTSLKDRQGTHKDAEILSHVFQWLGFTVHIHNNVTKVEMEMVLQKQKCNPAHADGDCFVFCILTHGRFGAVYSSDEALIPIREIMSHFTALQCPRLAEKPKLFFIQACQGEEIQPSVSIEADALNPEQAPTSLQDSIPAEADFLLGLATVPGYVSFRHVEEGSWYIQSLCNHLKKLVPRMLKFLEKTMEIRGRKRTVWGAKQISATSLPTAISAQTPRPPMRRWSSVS
Method: as §1

cIAP1 = cIAP1 (UniProt Q13490 1-618, limits assumed)
Method: as §1

Nod1 (CARD4) = target: T3, Nod1 (CARD4) (UniProt Q9Y239 1-953, limits assumed)
T3 construct: also called Nodl
T3 sequence (looked up): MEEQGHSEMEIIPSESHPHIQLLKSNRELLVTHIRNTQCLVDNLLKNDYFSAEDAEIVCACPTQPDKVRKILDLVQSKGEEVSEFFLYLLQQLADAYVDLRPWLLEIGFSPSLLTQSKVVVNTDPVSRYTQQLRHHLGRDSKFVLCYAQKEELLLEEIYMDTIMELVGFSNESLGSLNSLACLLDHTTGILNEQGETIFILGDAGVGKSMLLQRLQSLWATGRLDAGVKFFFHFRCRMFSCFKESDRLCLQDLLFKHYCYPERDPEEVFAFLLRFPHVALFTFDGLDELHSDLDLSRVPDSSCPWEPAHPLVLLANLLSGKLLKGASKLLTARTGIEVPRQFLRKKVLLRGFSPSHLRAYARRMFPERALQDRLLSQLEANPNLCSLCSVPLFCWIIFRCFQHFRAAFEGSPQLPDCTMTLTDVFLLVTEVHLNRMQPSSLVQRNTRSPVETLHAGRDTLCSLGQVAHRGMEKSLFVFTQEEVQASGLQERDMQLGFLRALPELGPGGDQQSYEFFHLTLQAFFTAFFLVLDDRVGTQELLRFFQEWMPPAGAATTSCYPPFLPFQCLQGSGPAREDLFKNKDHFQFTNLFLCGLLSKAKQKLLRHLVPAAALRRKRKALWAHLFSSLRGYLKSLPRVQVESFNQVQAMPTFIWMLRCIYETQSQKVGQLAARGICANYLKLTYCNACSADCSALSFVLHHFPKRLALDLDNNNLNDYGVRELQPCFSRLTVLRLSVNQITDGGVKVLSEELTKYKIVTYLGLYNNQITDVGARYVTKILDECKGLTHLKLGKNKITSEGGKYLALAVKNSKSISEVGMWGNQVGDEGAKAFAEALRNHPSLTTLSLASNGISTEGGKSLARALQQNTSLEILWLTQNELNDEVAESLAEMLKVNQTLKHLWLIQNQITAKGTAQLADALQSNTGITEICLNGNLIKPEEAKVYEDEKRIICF
Method: as §1

Chain of pro-caspase-8 (Q14790 whole entry): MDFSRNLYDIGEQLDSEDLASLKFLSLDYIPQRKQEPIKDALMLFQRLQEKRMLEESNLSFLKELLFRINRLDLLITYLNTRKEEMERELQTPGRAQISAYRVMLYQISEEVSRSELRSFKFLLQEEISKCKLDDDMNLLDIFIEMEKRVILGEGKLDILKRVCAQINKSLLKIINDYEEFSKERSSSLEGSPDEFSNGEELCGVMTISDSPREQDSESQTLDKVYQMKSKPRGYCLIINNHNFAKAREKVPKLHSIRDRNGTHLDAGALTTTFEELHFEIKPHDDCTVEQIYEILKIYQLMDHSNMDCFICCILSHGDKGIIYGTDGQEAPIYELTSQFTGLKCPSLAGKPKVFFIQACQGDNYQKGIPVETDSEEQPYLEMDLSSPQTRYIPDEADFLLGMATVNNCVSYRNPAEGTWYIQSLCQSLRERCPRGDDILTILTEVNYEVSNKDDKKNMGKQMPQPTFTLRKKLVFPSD
Chain of cIAP1 (Q13490 whole entry): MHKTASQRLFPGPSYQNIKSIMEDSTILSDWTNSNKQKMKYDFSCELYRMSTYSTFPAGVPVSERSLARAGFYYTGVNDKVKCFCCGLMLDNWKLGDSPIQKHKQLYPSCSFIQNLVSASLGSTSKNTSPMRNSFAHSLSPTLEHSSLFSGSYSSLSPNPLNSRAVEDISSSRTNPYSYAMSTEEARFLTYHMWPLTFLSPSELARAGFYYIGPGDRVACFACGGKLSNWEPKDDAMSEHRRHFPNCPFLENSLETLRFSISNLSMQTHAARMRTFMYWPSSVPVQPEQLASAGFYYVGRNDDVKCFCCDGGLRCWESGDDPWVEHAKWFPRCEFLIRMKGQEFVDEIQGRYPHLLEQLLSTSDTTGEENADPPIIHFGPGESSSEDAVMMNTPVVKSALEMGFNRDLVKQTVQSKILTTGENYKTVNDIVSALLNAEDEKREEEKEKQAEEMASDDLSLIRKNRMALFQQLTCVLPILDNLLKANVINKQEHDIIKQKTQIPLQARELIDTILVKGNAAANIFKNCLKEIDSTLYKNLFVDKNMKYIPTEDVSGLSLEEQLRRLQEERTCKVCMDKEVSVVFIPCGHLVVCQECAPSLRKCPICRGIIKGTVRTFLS
Chain of cIAP2 (Q13489 whole entry): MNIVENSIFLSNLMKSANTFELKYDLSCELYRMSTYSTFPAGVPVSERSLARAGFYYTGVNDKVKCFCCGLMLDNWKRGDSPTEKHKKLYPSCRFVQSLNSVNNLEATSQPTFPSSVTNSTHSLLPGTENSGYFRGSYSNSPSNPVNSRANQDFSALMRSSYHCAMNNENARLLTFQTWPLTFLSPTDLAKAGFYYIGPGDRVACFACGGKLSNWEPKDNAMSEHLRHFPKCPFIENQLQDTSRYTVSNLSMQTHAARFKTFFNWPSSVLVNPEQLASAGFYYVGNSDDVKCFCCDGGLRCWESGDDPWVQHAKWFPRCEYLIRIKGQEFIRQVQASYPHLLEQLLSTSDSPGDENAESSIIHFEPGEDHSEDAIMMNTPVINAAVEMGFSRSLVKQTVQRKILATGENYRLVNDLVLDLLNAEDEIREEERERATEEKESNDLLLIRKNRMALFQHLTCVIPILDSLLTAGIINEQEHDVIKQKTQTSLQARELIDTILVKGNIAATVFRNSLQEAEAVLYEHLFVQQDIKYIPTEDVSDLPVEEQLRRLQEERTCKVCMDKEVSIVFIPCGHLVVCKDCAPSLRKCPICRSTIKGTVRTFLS

- binding result (pro-caspase-8): no binding
- binding result (CED4): no binding
- binding result (cIAP2): no binding
- binding result (pro-caspase-10): no binding
- binding result (cIAP1): no binding
- binding result (Nod1 (CARD4)): no binding
B1: TUCAN (Tumor Up-regulated CARD-containing Antagonist of Caspase Nine), full-length (other)
chain: MMRQRQSHYCSVLFLSVNYLGGTFPGDICSEENQIVSSYASKVCFEIEEDYKNRQFLGPEGNVDVELIDKSTNRYSVWFPTAGWYLWSATGLGFLVRDEVTVTIAFGSWSQHLALDLQHHEQWLVGGPLFDVTAEPEEAVAEIHLPHFISLQGEVDVSWFLVAHFKNEGMVLEHPARVEPFYAVLESPSFSLMGILLRIASGTRLSIPITSNTLIYYHPHPEDIKFHLYLVPSDALLTKAIDDEEDRFHGVRLQTSPPMEPLNFGSSYIVSNSANLKVMPKELKLSYRSPGEIQHFSKFYAGQMKEPIQLEITEKRHGTLVWDTEVKPVDLQLVAASAPPPFSGAAFVKENHRQLQARMGDLKGVLDDLQDNEVLTENEKELVEQEKTRQSKNEALLSMVEKKGDLALDVLFRSISERDPYLVSYLRQQNL
notes: Full-length TUCAN expressed by transient transfection in HEK293T cells; also called full-length TUCAN; CARD-X
